Experimental data published in patent US20200102388A1 (NEW YORK UNIVERSITY, published 2020).
Changes are numbered by the printed parent chain. Read-outs that look alike come from different tables or passages of the source.

Experiments:
[1] = target: T1, heterodimer containing Delta1C and gamma 8, Fc-fusion protein (human); assay: ELISA on gamma/delta TCR-Fc heterodimers immobilised on a microtiter plate, probed with the clone named over the panel (control panel: No Phage)
T1 construct: the assay paragraph says only gamma 8; also called Delta1C/Gamma8; not shown: Fc portion of mouse IgG; AviTag; His6 tag
T1 sequence (V domain, as listed by the source, chain 1 of 2): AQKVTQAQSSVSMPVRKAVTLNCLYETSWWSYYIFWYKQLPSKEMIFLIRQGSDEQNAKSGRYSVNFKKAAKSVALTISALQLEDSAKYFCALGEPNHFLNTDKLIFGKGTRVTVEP
T1 sequence (V domain, as listed by the source, chain 2 of 2): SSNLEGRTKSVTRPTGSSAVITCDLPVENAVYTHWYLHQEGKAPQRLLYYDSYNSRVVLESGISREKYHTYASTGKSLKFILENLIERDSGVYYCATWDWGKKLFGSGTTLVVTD

[2] = target: T2, heterodimer containing Delta1C and gamma 3, Fc-fusion protein (human); assay: as above
T2 construct: the assay paragraph says only gamma 3; also called Delta1C/Gamma3; not shown: Fc portion of mouse IgG; AviTag; His6 tag
T2 sequence (V domain, as listed by the source, chain 1 of 2): as the sequence (V domain, as listed by the source, chain 1 of 2) above
T2 sequence (V domain, as listed by the source, chain 2 of 2): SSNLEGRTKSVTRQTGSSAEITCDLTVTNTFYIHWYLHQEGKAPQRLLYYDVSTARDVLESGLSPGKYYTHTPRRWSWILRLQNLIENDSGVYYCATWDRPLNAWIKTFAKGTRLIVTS

[3] = target: T3, γδ1 TCR containing the delta1C chain (human, biotinylated in vitro using recombinant BirA (AviTag)); assay: SPR (Pioneer, OneStep): biotinylated TCR immobilised on a neutravidin-loaded Avicap chip, IgG flowed; apparent KD
T3 construct: also called biotinylated TCR sample; gamma/delta1 TCR; not shown: Fc portion of mouse IgG; AviTag; His6 tag; TCR gamma chain fused to mouse IgG Fc
T3 sequence (main, as listed by the source): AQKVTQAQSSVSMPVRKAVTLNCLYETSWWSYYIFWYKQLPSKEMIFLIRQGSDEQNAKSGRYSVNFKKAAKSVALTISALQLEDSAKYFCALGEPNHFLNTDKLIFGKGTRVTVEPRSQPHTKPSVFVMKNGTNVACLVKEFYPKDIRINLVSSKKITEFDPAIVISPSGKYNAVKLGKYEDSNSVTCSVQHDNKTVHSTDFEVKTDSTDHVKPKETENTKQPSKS

[4] = target: T3, γδ1 TCR containing the delta1C chain; assay: as above; remark: listed apart in the source
Method: (§1) The affinity of the antibodies was assessed using surface plasmon resonance (SPR). A biotinylated TCR sample was immobilized on an Avicap chip (Pall ForteBio) that had been preloaded with neutravidin (ThermoFisher). IgG samples were flowed using the OneStep method on a Pioneer SPR instrument (Pall ForteBio).

[5] = target: T3, γδ1 TCR containing the delta1C chain; assay: as above; remark: listed apart in the source
Method: as §1

[6] = target: T1, heterodimer containing Delta1C and …; assay: ELISA on gamma/delta TCR-Fc heterodimers immobilised on a microtiter plate, probed with the clone named over the panel (control panel: No Phage); remark: listed apart in the source
[7] = target: T2, heterodimer containing Delta1C and …; assay: as above; remark: listed apart in the source
[8] = target: T3, γδ1 TCR containing the delta1C chain; assay: SPR (Pioneer, OneStep): biotinylated TCR immobilised on a neutravidin-loaded Avicap chip, IgG flowed; apparent KD; remark: listed apart in the source
Method: as §1

[9] = target: T1, heterodimer containing Delta1C and …; assay: ELISA on gamma/delta TCR-Fc heterodimers immobilised on a microtiter plate, probed with the clone named over the panel (control panel: No Phage); remark: listed apart in the source
[10] = target: T2, heterodimer containing Delta1C and …; assay: as above; remark: listed apart in the source
[11] = target: T3, γδ1 TCR containing the delta1C chain; assay: SPR (Pioneer, OneStep): biotinylated TCR immobilised on a neutravidin-loaded Avicap chip, IgG flowed; apparent KD; remark: listed apart in the source
Method: as §1

[12] = target: T1, heterodimer containing Delta1C and …; assay: ELISA on gamma/delta TCR-Fc heterodimers immobilised on a microtiter plate, probed with the clone named over the panel (control panel: No Phage); remark: listed apart in the source
[13] = target: T2, heterodimer containing Delta1C and …; assay: as above; remark: listed apart in the source
[14] = target: T3, γδ1 TCR containing the delta1C chain; assay: SPR (Pioneer, OneStep): biotinylated TCR immobilised on a neutravidin-loaded Avicap chip, IgG flowed; apparent KD; remark: listed apart in the source
Method: as §1

[15] = target: T1, heterodimer containing Delta1C and …; assay: ELISA on gamma/delta TCR-Fc heterodimers immobilised on a microtiter plate, probed with the clone named over the panel (control panel: No Phage); remark: listed apart in the source
[16] = target: T2, heterodimer containing Delta1C and …; assay: as above; remark: listed apart in the source
[17] = target: T1, heterodimer containing Delta1C and …; assay: as above; remark: listed apart in the source
[18] = target: T2, heterodimer containing Delta1C and …; assay: as above; remark: listed apart in the source

B1: Delta 1-1 (antibody, V domains shown)
VH: EVQLVESGGGLVQPGGSLRLSCAASGFTVSSSSIHWVRQAPGKGLEWVASISSYYGYTSYADSVKGRFTISADTSKNTAYLQMNSLRAEDTAVYYCAREEWMSYWYWPRYYYYGMDYWGQGTLVTVSS
VL: DIQMTQSPSSLSASVGDRVTITCRASQSVSSAVAWYQQKPGKAPKLLIYSASSLYSGVPSRFSGSRSGTDFTLTISSLQPEDFATYYCQQAALMSPITFGQGTKVEIKR
notes: Tested by SPR as human IgG made in ExpiCHO cells
For B1, the binding result [1] was “no binding”, the binding result [2] was “no binding” and the Kd [3] was 10 nM.

B2: Delta 1-3 (antibody, V domains shown)
VH: EVQLVESGGGLVQPGGSLRLSCAASGFTLSSSSIHWVRQAPGKGLEWVASIYSSSGYTSYADSVKGRFTISADTSKNTAYLQMNSLRAEDTAVYYCARGLWSVWYYQFYSSMQGMDYWGQGTLVTVSS
VL: DIQMTQSPSSLSASVGDRVTITCRASQSVSSAVAWYQQKPGKAPKLLIYSASSLYSGVPSRFSGSRSGTDFTLTISSLQPEDFATYYCQQGYEYPLTFGQGTKVEIKR
notes: Tested by SPR as human IgG
For B2, the Kd [4] was 50 nM.

B3: Delta 1-6 (antibody, V domains shown)
VH: EVQLVESGGGLVQPGGSLRLSCAASGFTVYSSSIHWVRQAPGKGLEWVASISPYSGSTSYADSVKGRFTISADTSKNTAYLQMNSLRAEDTAVYYCARMWYLSGWWTGDALDYWGQGTLVTVSS
VL: B1 VL with A91G, A92Y, L93Y, M94S, S95A, P96L
B3 was tested, and the Kd [5] was 11 nM, the binding result [6] was “no binding” and the binding result [7] was “no binding”.

B4: Delta 1-10 (antibody, V domains shown)
VH: EVQLVESGGGLVQPGGSLRLSCAASGFTFSSSSIHWVRQAPGKGLEWVASISSSSGSTSYADSVKGRFTISADTSKNTAYLQMNSLRAEDTAVYYCARSMVWYWGLNGYEEYAGGMDYWGQGTLVTVSS
VL: B2 VL with G91S, Y92S, E93S, Y94S, P95L, L96I
For B4, the Kd [8] was 24 nM, the binding result [9] was “no binding” and the binding result [10] was “no binding”.

B5: Delta 1-13 (antibody, V domains shown)
VH: EVQLVESGGGLVQPGGSLRLSCAASGFTFSSSSIHWVRQAPGKGLEWVASISSSSGSTSYADSVKGRFTISADTSKNTAYLQMNSLRAEDTAVYYCARTTSYIDEYFGFGWYAMDYWGQGTLVTVSS
VL: B2 VL with G91S, Y92S, E93S, Y94S, P95L, L96I
B5 gave a Kd [11] of 53 nM.

B6: Delta 1-17 (antibody, V domains shown)
VH: EVQLVESGGGLVQPGGSLRLSCAASGFTVSSSSIHWVRQAPGKGLEWVASIYSSSGYTYYADSVKGRFTISADTSKNTAYLQMNSLRAEDTAVYYCARDPGMYYWYYSGSAYEGYGLDYWGQGTLVTVSS
VL: B2 VL with G91S, Y92G, E93D, Y94D, P95L, L96I
notes: also called Delta1-17 IgG
With B6 the binding result [12] was “binds”, the binding result [13] was “binds” and the Kd [14] was 7 nM.

B7: Delta 1-8 (antibody, V domains shown)
VH: EVQLVESGGGLVQPGGSLRLSCAASGFTVSSSSIHWVRQAPGKGLEWVASIYSSSGYTYYADSVKGRFTISADTSKNTAYLQMNSLRAEDTAVYYCARPYYWYPYYYWSGGWEYAAFDYWGQGTLVTVSS
VL: B2 VL with G91Y, Y92G, L96I
B7: binds [15]; binds [16].

B8: Delta 1-15 (antibody, V domains shown)
VH: EVQLVESGGGLVQPGGSLRLSCAASGFTFSSSSIHWVRQAPGKGLEWVASISSSSGSTSYADSVKGRFTISADTSKNTAYLQMNSLRAEDTAVYYCARYSWIYDSWWSGWAMDYWGQGTLVTVSS
VL: B2 VL with G91S, Y92S, E93S, Y94S, P95L, L96I
B8: no binding [17]; binds [18].
